We go through one molecule from publication PMC6895045, “Upregulation of tropomyosin alpha-4 chain in patients’ saliva with oral squamous cell carcinoma as demonstrated by Phage display” (Scientific Reports, 2019).

The target of the assay is T1, tropomyosin alpha-4 chain (Homo sapiens, UniProt P67936).
T1 construct: Tropomyosin alpha-4 chain, human, UniProtKB P67936; theoretical mass/pI printed as 28,522 kDa/4.67); Denatured protein on a nitrocellulose membrane; identity rests on MALDI-TOF MS of the excised spot; also called TPM4; TMP4; source: endogenous, pooled protein extracts from OSCC tissues, resolved by 2D gel electrophoresis
Nature of the assay: far-Western, overlay or dot blot; Western blot of a 2D gel (pH 4-7) of OSCC tissue protein extracts on nitrocellulose, probed with scFv-D09, detected with HRP-conjugated rat anti-HA; the spot was excised from the stained gel and identified by MALDI-TOF MS. Conditions: one partner purified. A general note: A western blot detects proteins with antibodies after separation by electrophoresis.

T1 sequence (P67936 whole entry): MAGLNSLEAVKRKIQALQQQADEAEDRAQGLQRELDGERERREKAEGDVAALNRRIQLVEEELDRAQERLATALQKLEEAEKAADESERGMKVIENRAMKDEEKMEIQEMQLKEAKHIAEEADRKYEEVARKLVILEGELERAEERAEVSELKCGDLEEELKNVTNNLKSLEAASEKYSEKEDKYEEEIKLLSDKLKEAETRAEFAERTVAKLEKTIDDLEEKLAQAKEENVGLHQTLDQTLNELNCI

B1: scFv-D09 (scFv, V domains shown)
VH: QVQLQESGPGLVKPSQTLSLTCAVSGGSISSSNWWSWVRQPPGKGLEWIGEIYHSGSTNYNPSLKSRVTISVDKSKNQFSLKLSSVTAADTAVYYCARQSFPGRAFDIWGQGTMVTVSS
VL: EIVMTQSPATLSVSPGERATLSCRASQSVSSNLAWYQQKPGQAPRLLIYGASTRATGIPARFSGSGSGTEFTLTISSLQSEDFAVYYCQHYNNWLWTFGQGTKVEIK
notes: also called scFv D09 antibody; scFv-D09 clone
Regarding B1, the binding result is “binds”.
